{
  "source": "paper doi:10.1101/2024.01.24.577129",
  "about": "(2024)",
  "binders": {"B1": {"name": "34-1-2S antibody (antibody, V domains shown)", "VH": "EVQLQQSGAEFVRPGASVKLSCTASGFNLKDDYMFWVKQRPEQGLEWIGWIAPDNGDTEYASKFQGKATITADTSSNTAYVQLSSLTSEDTAVYYCTTWGYYSYVNYWGQGTTLTVSS", "VL": "DIQMTQSPSSLSASLGERVSLTCRASQDIGSNLNWLQQEPDGTIKRLIYATYSLDSGVPKRFSGSRSGSDYSLTISSLESEDFVDYYCLQYASSPYTFGGGTKLEIK"}},
  "assay_in_all_cases": "SPR",
  "key": {"[1]": {"target": "D^d MHC class I monomer presenting […] (mouse | )"}, "[2]": {"target": "T1, K^d MHC class I monomer presenting VYLKTNVFL (mouse | )", "T1 chain 1": "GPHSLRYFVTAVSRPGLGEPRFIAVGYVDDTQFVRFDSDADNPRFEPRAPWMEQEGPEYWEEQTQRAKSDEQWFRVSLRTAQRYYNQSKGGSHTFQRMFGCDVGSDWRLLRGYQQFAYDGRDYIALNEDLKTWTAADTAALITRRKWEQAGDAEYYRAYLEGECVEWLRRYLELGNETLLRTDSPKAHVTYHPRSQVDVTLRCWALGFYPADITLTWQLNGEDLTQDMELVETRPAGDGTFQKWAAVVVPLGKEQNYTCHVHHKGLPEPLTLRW", "T1 chain 2": "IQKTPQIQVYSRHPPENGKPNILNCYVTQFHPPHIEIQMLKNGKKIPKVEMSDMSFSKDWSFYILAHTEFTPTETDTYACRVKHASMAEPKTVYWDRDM", "T1 chain 3": "VYLKTNVFL"}, "[3]": {"target": "T2, K^b MHC class I monomer presenting SIINFEKL (mouse | )", "T2 chain 1": "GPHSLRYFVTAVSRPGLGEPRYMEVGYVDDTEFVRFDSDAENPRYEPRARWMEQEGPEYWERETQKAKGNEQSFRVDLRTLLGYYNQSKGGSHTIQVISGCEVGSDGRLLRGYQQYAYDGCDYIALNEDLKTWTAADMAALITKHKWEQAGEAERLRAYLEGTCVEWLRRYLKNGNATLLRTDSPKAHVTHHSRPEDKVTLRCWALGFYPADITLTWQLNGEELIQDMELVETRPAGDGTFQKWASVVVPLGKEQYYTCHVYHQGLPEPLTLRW", "T2 chain 2": "T1 chain 2", "T2 chain 3": "SIINFEKL"}},
  "data": [
    {"binder": "B1", "values": [
      {"measurement": "Kd", "setting": "[1]", "result": 30, "unit": "nM"},
      {"measurement": "Kd", "setting": "[2]", "result": 9.1, "unit": "nM"},
      {"measurement": "Kd", "setting": "[3]", "result": 2490, "unit": "nM"}
    ]}
  ]
}
